Results as given in PMC7449674.

Target: human H3.1/H4 tetramer (ITC sample) (human) (UniProt P68431)
Assay: ITC

- Kd: 7.9 µM
Substance: mouse POLA1 N1 fragment (ITC sample) (from UniProt P33609 1-110) (domain or fragment)
